Experimental data taken from paper PMC7810697, “Sarcolipin alters SERCA1a interdomain communication by impairing binding of both calcium and ATP” (Scientific Reports, 2021).
Several values for one entry are separate records, joined by “and”; a condition that tells them apart may be missing. Identical values can stand only once. Ends that are not written are not given here. * marks the point of attachment. Palmitoyl = CCCCCCCCCCCCCCCC(=O)*

Key:
[1] = biological target: T1, recombinant SERCA1a (recS1a) (Oryctolagus cuniculus, UniProt P04191); test: Turnover-dependent dephosphorylation kinetics; type: biochemical, rabbit (expressed in S. cerevisiae); settings: for effect on rate of dephosphorylation: after addition of non-radioactive ATP
T1 construct: BAD (biotin acceptor domain) (C, cleaved yes); made in house; host or cells: Saccharomyces cerevisiae
T1 sequence (P04191 1-994 isoform P04191-2): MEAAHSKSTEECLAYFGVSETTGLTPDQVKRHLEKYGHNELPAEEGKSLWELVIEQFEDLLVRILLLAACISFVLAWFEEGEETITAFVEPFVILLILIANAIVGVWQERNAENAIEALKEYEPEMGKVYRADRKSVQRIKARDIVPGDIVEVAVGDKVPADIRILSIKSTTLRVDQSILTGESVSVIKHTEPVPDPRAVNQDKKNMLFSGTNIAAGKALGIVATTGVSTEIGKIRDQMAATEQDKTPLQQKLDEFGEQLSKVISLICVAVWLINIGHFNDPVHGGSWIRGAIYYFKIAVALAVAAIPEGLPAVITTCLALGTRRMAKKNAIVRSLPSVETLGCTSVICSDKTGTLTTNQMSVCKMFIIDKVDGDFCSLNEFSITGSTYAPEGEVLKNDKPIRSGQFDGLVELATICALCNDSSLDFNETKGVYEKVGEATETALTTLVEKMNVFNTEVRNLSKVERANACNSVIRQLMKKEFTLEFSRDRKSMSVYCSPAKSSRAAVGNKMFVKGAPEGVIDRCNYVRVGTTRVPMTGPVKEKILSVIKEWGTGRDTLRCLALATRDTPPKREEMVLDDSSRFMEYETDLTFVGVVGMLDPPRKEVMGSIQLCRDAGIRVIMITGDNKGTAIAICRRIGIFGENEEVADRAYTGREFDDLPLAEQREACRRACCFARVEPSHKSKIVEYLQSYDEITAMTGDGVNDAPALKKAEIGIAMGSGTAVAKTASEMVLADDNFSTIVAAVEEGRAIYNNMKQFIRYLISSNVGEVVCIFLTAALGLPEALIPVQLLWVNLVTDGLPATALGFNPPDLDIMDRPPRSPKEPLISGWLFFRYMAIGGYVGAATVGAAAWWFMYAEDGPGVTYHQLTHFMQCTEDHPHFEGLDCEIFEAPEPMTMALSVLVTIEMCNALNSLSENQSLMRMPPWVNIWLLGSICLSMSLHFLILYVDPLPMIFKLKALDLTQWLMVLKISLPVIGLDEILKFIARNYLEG
Procedure: (§1) Transient formation of the phosphoenzyme intermediate was measured after incubation with [γ^32P]ATP followed by acid quenching, and filtration. For most experiments, 50 µL of enzyme at 10 µg/mL in a buffer containing 50 mM Tes-Tris pH7.5, 1 mM KCl, 5 mM MgCl2, 20% glycerol (w/w) and 0.5 mg/mL DDM, supplemented or not with SLN, was stored on ice. Concentrations of EGTA and calcium are specified in figure legends in order to reach the appropriate [Ca^2+]free and therefore the desired starting state for the ATPase. For kinetics of phosphorylation, we initiate reaction by addition of 2 µM [γ^32P]ATP (5 mCi/µmole), and calcium at 100 µM when specified. Reaction was quenched by addition of 2 mL of cold quenching medium (500 mM TCA + 30 mM H3P0_4) under vigorous mixing, and immediately stored on ice for 20–30 min to improve precipitation, a period of time critical for retention of the precipitate on the filter in presence of detergent. This was followed by filtration on GS filters (Millipore, Saint Quentin-Fallavier, France) and careful rinsing of the filters with diluted quenching medium (50 mM TCA + 3 mM H3P0_4). The amount of radioactivity bound to the filter was estimated by liquid scintillation counting (Perkin Elmer TriCarb Counter). When starting from a calcium-deprived state (Fig. 4C,D), EGTA was added only one minute before starting phosphorylation to limit irreversible inactivation of the solubilized ATPase, although the presence of glycerol helps in protecting the enzyme from irreversible inactivation. For dephosphorylation kinetics, 1 mM “cold” Mg.ATP was added after a 30 s period of phosphorylation. For Ca^2+-dependency, we adjust the concentration of free calcium according to the Ca.EGTA constant as mentioned above, before triggering phosphorylation. […] Phosphorylations were done at 0 °C especially for inhibition by vanadate to prevent dissociation of vanadate and limit irreversible inactivation in absence of calcium.

SERCA1a [2] = settings: cited from earlier work
From the text: Effect on the turnover is less clear as it seems to highly depend on the system used for functional characterization. […] This post-translational modification is also present in pig SLN and presumably in a few other mammals and birds, as judged from the amino-acid sequences. Among the other hundred seq ...

SERCA1a [3] = settings: cross-linking experiments; cited from earlier work
From the text: An analysis of all the published data on biochemical characterization of PLB or SLN highlights heterogeneity in the results.

SERCA1a [4] = settings: cited from earlier work; remark: listed apart in the source
From the text: Besides its various roles in protein signalling and addressing, palmitoylation can also regulate oligomerisation processes of membrane proteins. Recent work has shown that other P-type ATPases regulatory subunits like phospholamban (PLB) and phospholemman (PLM) are palmitoylated[16],[17]. Acylation of PLB and PLM is functionally relevant by having an impact on the oligomerisation of the peptides, their association with their dedicated pumps (Ca^2+-ATPase or Na+, K+-ATPase, respectively) and on their lifetime.

[5] = test system: recombinant purified SERCA1a (recS1a); test: Limited proteolysis with proteinase K (SDS-PAGE); type: biochemical, rabbit (expressed in S. cerevisiae); settings: Ca2.E1 (1 mM calcium) and E2.Tg (EGTA + thapsigargin); recS1a:pSLN 1:10 mole:mole; 0.3 mg/mL proteinase K, 5-30 min, 20 °C
Procedure: Yeast-expressed and purified SERCA1a (recS1a) was supplemented with SLN at a mole:mole ratio of 1:10 recS1a:SLN. In absence of SLN, recS1a was supplemented with 0.07 mg/mL C12E8, an amount that corresponds to the detergent brought with chemically synthesized SLN. After 30 min at 20 °C, samples were supplemented with either 1.1 mM EGTA (Ca^2+free ~ 1 mM), or 50 mM EGTA (Ca^2+free ~ 150 nM) and 0.01 mg/mL Tg. After an additional incubation for 10 min at 20 °C, proteolysis was achieved by addition of 0.3 mg/mL proteinase K. Proteolysis was stopped by addition of 1 mM PMSF and incubation on ice for 10 min. After proteolysis arrest, samples were diluted twice in a 4 M-urea containing denaturation buffer, boiled for 60 s, and about 0.75 µg protein were loaded on a 9% SDS-PAGE prepared in the presence of 1 mM Ca^2+[32]. After electrophoresis, gels were stained with Coomassie blue.

[6] = biological target: T1, recombinant SERCA1a (recS1a); test: Calcium binding at equilibrium by tryptophan fluorescence; parameters: species or system rabbit (expressed in S. cerevisiae); settings: average of three independent experiments; for Ca1/2 (tryptophan fluorescence), recS1a + pSLN: at equilibrium, pH 7, 20 °C, DDM, 20% glycerol, p=0.200 vs recS1a alone
Procedure: Intrinsic fluorescence of SERCA1a was measured with a SPEX Fluorolog spectrofluorometer (Horiba/Jobin–Yvon, Longjumeau, France) as described before. Briefly, signals were monitored with excitation and emission wavelength set at 295 and 320 nm, with bandwidths of 2 and 10 nm, respectively. Changes in tryptophan fluorescence were recorded at 20 °C after dilution of protein samples to a final concentration of about 6–7.5 µg/mL into a medium containing 50 mM MOPS-Tris pH 7, 100 mM KCl, 5 mM MgCl2, 20% glycerol (v/v) and 10 mg/mL DDM. In presence of SLN, recS1a and SLN were first mixed together and incubate for 1 h on ice before measurement. In absence of SLN, recS1a is supplemented with 0.07 mg/mL C12E8 to compensate the detergent present with SLN. The Maxchelator program was used for estimating [Ca^2+]free[59] (program available at https://somapp.ucdmc.ucdavis.edu/pharmacology/bers/maxchelator/downloads.htm). The dissociation constant of the Ca.EGTA complex was taken to be 0.4 µM at pH7 and was assumed to be the same in the presence of glycerol.

[7] = biological target: T1, recombinant SERCA1a (recS1a); test: Calcium dependence of phosphoenzyme level; type: biochemical, rabbit (expressed in S. cerevisiae)
Procedure: as §1

[8] = biological target: T1, recombinant SERCA1a (recS1a); test: Vanadate inhibition of phosphoenzyme formation, recS1a; type: biochemical, rabbit (expressed in S. cerevisiae); settings: for K1/2 (K0.5) for vanadate inhibition, recS1a + pSLN: DDM-solubilized, preincubation with orthovanadate without calcium, phosphorylation 30 s at 0 °C, three independent experiments, p < 0.0001 vs recS1a alone
Procedure: as §1

Substance	effect on rate of dephosphorylation [1]	apparent affinity for calcium in presence of SLN (SERCA1a [2]; 0.35 µM in absence of SLN)	Vmax in presence of SLN, increase reported by some authors (SERCA1a [2]; % of Vmax measured in absence of SLN, ref 13 and Supplementary Table 1)	cross-linking interaction with SERCA1a (SERCA1a [3])	effect of phosphorylation of SLN:Thr5 on SERCA1a inhibition (SERCA1a [4])	effect on proteinase K proteolysis [5]	t1/2 of dephosphorylation ([1]; pSLN:SERCA1a 10:1 mol:mol, 1 mM cold Mg.ATP after 30 s phosphorylation, three replicates from two independent experiments, recS1a alone 2.4 +/- 0.4, p=0.064)	Ca1/2 (tryptophan fluorescence), recS1a + pSLN [6]	Ca1/2 (tryptophan fluorescence), recS1a + pSLN ([6]; listed as Palm-SLN)	nH for calcium (tryptophan fluorescence), recS1a + pSLN [6]	nH for calcium (phosphoenzyme level), recS1a + pSLN ([7]; five independent experiments)	Ca1/2 (phosphoenzyme level), recS1a + pSLN ([7]; phosphorylation 15 s, varying calcium, five independent experiments, 36 data points per fit, p = 0.29)	EPmax (calcium dependence) ([7]; recS1a + pSLN, Fig. 4E, recS1a alone 3.13 ± 0.11)	K1/2 (K0.5) for vanadate inhibition, recS1a + pSLN [8]	K1/2 (K0.5) for vanadate inhibition, recS1a + pSLN ([8]; listed as Palm-SLN)	EPmax (vanadate series) ([8]; recS1a + pSLN, recS1a alone 2.01 ± 0.05)
SLN: chemically synthesized non-palmitoylated rabbit sarcolipin; in cited literature results sarcolipin in general (MERSTRELCLNFTVVLITVILIWLLVRSYQY; UniProt P42532 1-31, looked up)	No effect	0.51 µM	up to 140%	interaction of SLN with SERCA1a at all the major steps of the catalytic cycle	loss of inhibition of SERCA1a											
pSLN: chemically synthesized S-palmitoylated rabbit sarcolipin, 31-residue single-spanning membrane peptide, palmitoylated on Cys9 (MERSTRELC(Palmitoyl)LNFTVVLITVILIWLLVRSYQY; UniProt P42532 1-31, looked up)	No effect					drastically slowed	2.8 ± 0.6 s	4.5 µM	4.48 +/- 0.52 µM	1.96+/-0.20	0.74 ± 0.03	0.58 ± 0.05 µM and 0.58 µM	3.19 ± 0.11 nmoles EP/mg ATPase	0.22 ± 0.01 µM	0.22+/-0.01 µM	2.07 ± 0.21 nmoles/mg of ATPase
